Where a chain is given by its changes, count along the chain named. In names and notes the source's numbering stands.

For this experiment, the target named is T1, Histidine-tagged recombinant human FcγRI (CD64) (human, UniProt P12314 16-288).
T1 construct: bought; also called Sino Biological Cat. No. 12056-H08H
Put plainly: SPR, culture supernatant, captured His-FcγRI. (In general: SPR reads the build-up and loss of mass on a sensor chip optically.)
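Further: biacore T200 SPR at 25 °C, anti-His capture, supernatants of HEK293 cells expressing IgG1 Fc variants injected 1 min, reference-subtracted response read 55 s after injection start.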

Procedure: Binding analysis was carried out by surface plasmon resonance at 25° C. using a Biacore® T200 instrument with Biacore® T200 control software. The running buffer (HBS-EP+) consisted of 0.01 M HEPES pH 7.4, containing 0.15 M NaCl, 3 mM EDTA, and 0.05% v/v Surfactant P20. The sample compartment was held at 4° C. during analysis.
The cell was activated by treatment with EDC/NHS for 7 min. The antibody was diluted to 5 μg/mL in 10 mM sodium acetate pH 4.5 and injected for 7 min at 5 μL/min. The flow cell was deactivated by injection of 1M ethanolamine for 7 min. This process was repeated in the absence of anti-his antibody on a separate flow cell to generate a reference surface. […] Samples of undiluted culture supernatants from HEK293 cells expressing human IgG1 antibodies comprising variant Fc regions were injected for 1 min at 30 μL/min and allowed to disassociate for 2 min. […] Therefore, regeneration between cycles was not necessary. Responses on the test flow cell (coupled with anti-His antibody) were analysed after subtraction of responses on the control flow cell (sham-coupled). The relative binding response was measured 55 sec after the beginning of sample injection. To account for any possible drift in response due to slow dissociation of the His-tagged FcγRI, the binding response was measured relative to a baseline interpolated between report points located before sample injection and at the end of dissociation.
The whole experiment was repeated three times. Due to the relatively crude nature of the samples (variable refractive index, presence of culture media and other cellular products), some sensorgrams were unsatisfactory and were eliminated from analysis. The mean and standard deviation of binding response was then calculated for each sample.

B1: anti-CD20 human IgG1 L234N/L235D/G236R (antibody)
heavy: QVQLQQPGAELVKPGASVKMSCKASGYTFTSYNMHWVKQTPGRGLEWIGAIYPGNGDTSYNQKFKGKATLTADKSSSTAYMQLSSLTSEDSAVYYCARSTYYGGDWYFNVWGAGTTVTVSSASTKGPSVFPLAPSSKSTSGGTAALGCLVKDYFPEPVTVSWNSGALTSGVHTFPAVLQSSGLYSLSSVVTVPSSSLGTQTYICNVNHKPSNTKVDKKVEPKSCDKTHTCPPCPAPENDRGPSVFLFPPKPKDTLMISRTPEVTCVVVDVSHEDPEVKFNWYVDGVEVHNAKTKPREEQYNSTYRVVSVLTVLHQDWLNGKEYKCKVSNKALPAPIEKTISKAKGQPREPQVYTLPPSRDELTKNQVSLTCLVKGFYPSDIAVEWESNGQPENNYKTTPPVLDSDGSFFLYSKLTVDKSRWQQGNVFSCSVMHEALHNHYTQKSLSLSPGK
light: QIVLSQSPAILSASPGEKVTMTCRASSSVSYIHWFQQKPGSSPKPWIYATSNLASGVPVRFSGSGSGTSYSLTISRVEAEDAATYYCQQWTSNPPTFGGGTKLEIKRTVAAPSVFIFPPSDEQLKSGTASVVCLLNNFYPREAKVQWKVDNALQSGNSQESVTEQDSKDSTYSLSSTLTLSKADYEKHKVYACEVTHQGLSSPVTKSFNRGEC
notes: also called 1-93; copies: 2 + 2
As for B1, the Mean binding response amounted to 13.4 RU.

B2: anti-CD20 human IgG1 L234R/G236R (antibody)
heavy: not shown
light: B1 light
notes: also called 2-41; copies: 2 + 2
On to B2, for which the Mean binding response is 21.1 RU.

B3: anti-CD20 human IgG1 L234R/L235S/G236R (antibody)
heavy: B1 heavy with N238R, D239S
light: B1 light
notes: copies: 2 + 2
B3: the Mean binding response was determined as 34 RU.

B4: anti-CD20 human IgG1 L234Q/L235G/G236R (antibody)
heavy: B1 heavy with N238Q, D239G
light: B1 light
notes: also called 1-110; copies: 2 + 2
As to B4, the Mean binding response was determined as 28.1 RU.

B5: anti-CD20 human IgG1 L234N/L235E/G236R (antibody)
heavy: B1 heavy with D239E
light: B1 light
notes: also called 1-94; copies: 2 + 2
As to B5, the Mean binding response came to 16.4 RU.

B6: anti-CD20 human IgG1 L234Q/L235Q/G236R (antibody)
heavy: B1 heavy with N238Q, D239Q
light: B1 light
notes: also called 2-31; copies: 2 + 2
As to B6, the Mean binding response is 16.8 RU.

B7: anti-CD20 human IgG1 L234N/L235R/G236R (antibody)
heavy: B1 heavy with D239R
light: B1 light
notes: copies: 2 + 2
In the case of B7, the Mean binding response came out at 30.4 RU.

B8: anti-CD20 human IgG1 L234N/L235V/G236R (antibody)
heavy: B1 heavy with D239V
light: B1 light
notes: copies: 2 + 2
As for B8, the Mean binding response is 18.9 RU.

B9: anti-CD20 human IgG1 L234Q/L235M/G236R (antibody)
heavy: B1 heavy with N238Q, D239M
light: B1 light
notes: also called 1-115; copies: 2 + 2
Consider B9, for which the Mean binding response came to 38.4 RU.

B10: anti-CD20 human IgG1 L234Q/L235I/G236R (antibody)
heavy: B1 heavy with N238Q, D239I
light: B1 light
notes: copies: 2 + 2
Take B10: the Mean binding response is 34.7 RU.

B11: anti-CD20 human IgG1 L234R/L235Q/G236R (antibody)
heavy: B1 heavy with N238R, D239Q
light: B1 light
notes: also called 2-42; copies: 2 + 2
B11: the Mean binding response came to 10.1 RU.

B12: anti-CD20 human IgG1 L234N/L235I/G236R (antibody)
heavy: B1 heavy with D239I
light: B1 light
notes: also called 1-97; copies: 2 + 2
For the molecule B12, the Mean binding response came to 14.1 RU.

B13: anti-CD20 human IgG1 L234Q/L235V/G236R (antibody)
heavy: B1 heavy with N238Q, D239V
light: B1 light
notes: copies: 2 + 2
For B13, the Mean binding response worked out at 20.9 RU.

B14: anti-CD20 human IgG1 L234N/L235Q/G236R (antibody)
heavy: B1 heavy with D239Q
light: B1 light
notes: copies: 2 + 2
Regarding B14, the Mean binding response was found to be 4.5 RU.

B15: anti-CD20 human IgG1 L234S/L235K/G236R (antibody)
heavy: B1 heavy with N238S, D239K
light: B1 light
notes: copies: 2 + 2
For B15, the Mean binding response came out at 23.8 RU.

B16: anti-CD20 human IgG1 L234S/L235M/G236R (antibody)
heavy: B1 heavy with N238S, D239M
light: B1 light
notes: copies: 2 + 2
For B16, the Mean binding response came to 32 RU.

B17: anti-CD20 human IgG1 L234S/L235Q/G236R (antibody)
heavy: B1 heavy with N238S, D239Q
light: B1 light
notes: copies: 2 + 2
Regarding B17, the Mean binding response turned out to be 29.6 RU.

B18: anti-CD20 human IgG1 L234N/L235T/G236R (antibody)
heavy: B1 heavy with D239T
light: B1 light
notes: copies: 2 + 2
As to B18, the Mean binding response turned out to be 8.6 RU.

B19: anti-CD20 human IgG1 L234N/L235S/G236R (antibody)
heavy: B1 heavy with D239S
light: B1 light
notes: copies: 2 + 2
In the case of B19, the Mean binding response was 18.4 RU.

B20: anti-CD20 human IgG1 L234Q/L235H/G236R (antibody)
heavy: B1 heavy with N238Q, D239H
light: B1 light
notes: also called 2-29; copies: 2 + 2
With B20, the Mean binding response worked out at 10 RU.

B21: anti-CD20 human IgG1 L234R/L235E/G236R (antibody)
heavy: B1 heavy with N238R, D239E
light: B1 light
notes: also called 2-37; copies: 2 + 2
B21: the Mean binding response is 16.7 RU.

B22: anti-CD20 human IgG1 L234R/L235V/G236R (antibody)
heavy: B1 heavy with N238R, D239V
light: B1 light
notes: copies: 2 + 2
With B22, the Mean binding response amounted to 32.5 RU.

B23: anti-CD20 human IgG1 L234S/L235N/G236R (antibody)
heavy: B1 heavy with N238S, D239N
light: B1 light
notes: copies: 2 + 2
In the case of B23, the Mean binding response worked out at 22.7 RU.

B24: anti-CD20 human IgG1 L234N/L235H/G236R (antibody)
heavy: B1 heavy with D239H
light: B1 light
notes: also called 1-96; copies: 2 + 2
As for B24, the Mean binding response stood at 17.7 RU.

B25: anti-CD20 human IgG1 L234N/L235K/G236R (antibody)
heavy: B1 heavy with D239K
light: B1 light
notes: also called 1-98; copies: 2 + 2
Take B25: the Mean binding response was 25 RU.

B26: anti-CD20 human IgG1 L234R/L235A/G236R (antibody)
heavy: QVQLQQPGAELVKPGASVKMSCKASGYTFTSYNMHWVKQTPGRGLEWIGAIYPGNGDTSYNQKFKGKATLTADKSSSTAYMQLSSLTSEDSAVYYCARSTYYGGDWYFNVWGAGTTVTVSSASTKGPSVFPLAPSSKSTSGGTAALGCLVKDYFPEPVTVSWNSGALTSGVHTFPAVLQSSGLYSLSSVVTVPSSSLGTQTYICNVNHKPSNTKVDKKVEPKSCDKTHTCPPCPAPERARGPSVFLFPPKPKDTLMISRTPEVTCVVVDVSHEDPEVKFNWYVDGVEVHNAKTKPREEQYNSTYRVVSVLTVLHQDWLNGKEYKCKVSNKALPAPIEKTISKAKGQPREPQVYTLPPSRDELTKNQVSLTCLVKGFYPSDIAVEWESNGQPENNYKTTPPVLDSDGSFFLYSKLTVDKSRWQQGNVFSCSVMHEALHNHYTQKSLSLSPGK
light: B1 light
notes: copies: 2 + 2
For the molecule B26, the Mean binding response was determined as 28.1 RU.

B27: anti-CD20 human IgG1 L234S/L235A/G236R (antibody)
heavy: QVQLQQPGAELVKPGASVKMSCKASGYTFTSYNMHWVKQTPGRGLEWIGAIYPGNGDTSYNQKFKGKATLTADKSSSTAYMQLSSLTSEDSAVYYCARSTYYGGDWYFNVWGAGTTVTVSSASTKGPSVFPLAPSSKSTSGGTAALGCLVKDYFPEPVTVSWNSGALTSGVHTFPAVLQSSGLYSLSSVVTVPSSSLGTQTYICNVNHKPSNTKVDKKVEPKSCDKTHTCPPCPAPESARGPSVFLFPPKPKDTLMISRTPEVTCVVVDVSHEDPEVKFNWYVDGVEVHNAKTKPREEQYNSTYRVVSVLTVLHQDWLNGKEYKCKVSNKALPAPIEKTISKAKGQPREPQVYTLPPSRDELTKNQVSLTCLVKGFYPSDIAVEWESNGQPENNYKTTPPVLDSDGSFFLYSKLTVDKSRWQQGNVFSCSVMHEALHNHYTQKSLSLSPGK
light: B1 light
notes: also called 1-137; copies: 2 + 2
As for B27, the Mean binding response worked out at 29.6 RU.

B28: anti-CD20 human IgG1 L234Q/L235N/G236R (antibody)
heavy: B1 heavy with N238Q, D239N
light: B1 light
notes: copies: 2 + 2
Take B28: the Mean binding response is 26.8 RU.

B29: anti-CD20 human IgG1 L234R/L235N/G236R (antibody)
heavy: B1 heavy with N238R, D239N
light: B1 light
notes: copies: 2 + 2
On to B29, for which the Mean binding response stood at 10.8 RU.

B30: anti-CD20 human IgG1 L234N/L235N/G236R (antibody)
heavy: B1 heavy with D239N
light: B1 light
notes: copies: 2 + 2
As to B30, the Mean binding response was 16.9 RU.

B31: anti-CD20 human IgG1 L234S/L235I/G236R (antibody)
heavy: B1 heavy with N238S, D239I
light: B1 light
notes: also called 2-49; copies: 2 + 2
For the molecule B31, the Mean binding response worked out at 12 RU.

B32: anti-CD20 human IgG1 L234Q/L235E/G236R (antibody)
heavy: B1 heavy with N238Q, D239E
light: B1 light
notes: copies: 2 + 2
For B32, the Mean binding response was found to be 28.8 RU.

B33: anti-CD20 human IgG1 L234S/L235E/G236R (antibody)
heavy: B1 heavy with N238S, D239E
light: B1 light
notes: also called 2-46; copies: 2 + 2
Regarding B33, the Mean binding response was 11.6 RU.

B34: anti-CD20 human IgG1 L234R/L235G/G236R (antibody)
heavy: B1 heavy with N238R, D239G
light: B1 light
notes: copies: 2 + 2
With B34, the Mean binding response worked out at 31.9 RU.

B35: anti-CD20 human IgG1 L234N/L235G/G236R (antibody)
heavy: B1 heavy with D239G
light: B1 light
notes: also called 1-95; copies: 2 + 2
With B35, the Mean binding response worked out at 22.1 RU.

B36: anti-CD20 human IgG1 L234Q/L235K/G236R (antibody)
heavy: B1 heavy with N238Q, D239K
light: B1 light
notes: copies: 2 + 2
With B36, the Mean binding response is 26.9 RU.

The record behind these values is patent US20230235013A1 (MABSOLVE, published 2023).
